Data taken from patent publication US20190315842A1.

B1: Ab7957/293i (antibody, IgG1, V domains shown)
VH: LVESGGGVVPPGKSLRLSCAASGFTFSLYGIHWVRQAPGKGLEWVAVISYDGNTKYYTDSVKGRFTISRDNAKNTIYLQMNSLRLDDTAVYYCAKGAANSATFDFWGRGTMVTVSS
VL: MTQSPDSLTLSLGERATINCRSSRTVLYRSNNKNYLAWYQHKPGQPPKLLMSWASTRETGVPDRFSGSGSGTHFTLTITSLQPEDVAVYYCQQYYSPPWTFGQGTKVEIR
B2: Ab7960/293i (antibody, IgG1, V domains shown)
VH: LVESGGGVVQPGKSLRLSCVASGFSFSTYGMHWVRQAPGKGLEWVAVMSFDGKTKYYADSVKGRFTISRDNPKNTLYLQMNSLRSEDTAVYYCAKGGAAAAVFDSWGPGILLTVSS
VL: MTQSPNSLAVSLGGRATINCKASQSILYRSNNKNYLAWYQHKAGQPPKLLIYWASTRESGVPERFSGSGSRTDFTLTINGLQAEDVAVYYCQQYYNPPWTFGQGTKVEIK
B3: Ab7961/293i (antibody, IgG1, V domains shown)
VH: LVESGGGVVQPGKSLRLSCVASGFTFSSYGMHWVRQAPGKGLEWVAVMSFDGKTKYYADSVKGRFTISRDNPKNTLYLQMNSLRSEDTAVYYCAKGGAAAAVFDSWGQGILLTVSS
VL: MTQSPNSLAVSLGGRATINCKTSQSILYRSNNKNYLAWYQHKSGQPPKLLIYWASTRESGVPDRFSGSGSRTDFTLTISGLQAEDVAVYYCQQYYNPPWTFGQGTKVEIK
B4: Ab7962/293i (antibody, V domains shown)
VH: LVESGGGLVQPGGSLRLSCAASGFTFSSYEMNWVRQAPGKGLEWVSYISSSGSTIYYADSVKGRFTISRDNAKNSLYLQMNSLRAEDTAVYYCARVEQLAPSPYMDVWGKGTTVTVSS
VL: MTQSLDSLTVSLGERATINCKSSQSLLYTSNNKNYLAWYQQKSGQPPKLLIYWASIRDSGVPDRFSGSGSATDFTLTINNLQAEDVAVYFCQQYYKTPLTFGGGTKVEVR
B5: Ab7970 (antibody, IgG1, V domains shown)
VH: LVESGGGVVQPGRSLRLSCAASGLTFSFYNFHWVRQTPGKGLEWVAGISYDATRTNYAGSVTGRFTISRDNSKKMLYLQMSSLGPQDTAVYHCARDRSDGQLHKVAFDSWGQGALVTVSS
VL: MTQSPDSLTLSLGERATINCRSSRTVLYRSNNKNYLAWYQHKPGQPPKLLMSWASTRETGVPDRFSGSGSGTHFTLTITSLQPEDVAVYYCQQYYSPPWTFGQGTKVEIR
B6: Ab7979 (antibody, IgG1, V domains shown)
VH: LVESGGGVVQPGKSLRLSCVASGFTFSTYGMHWVRQAPGKGLEWVAVMSFDGKTKYYADSVKGRFTISRDNPKNTLYLQMNSLRSEDTAVYYCAKGGAAAAVFDSWGQGILLTVSS
VL: MTQSPNSLAVSLGGRATINCKTSQSILYRSNNKNYLAWYQHKPGQPPKLLIYWASTRESRVPDRFSGSGSRTDFTLTISGLQAEDVAVYYCQQYYNPPWTFGQGTKVEIK
B7: Ab7955 (antibody, V domains shown)
VH: LVESGGGVVRPGRSLRLSCVASGFTFNAYGMHWVRQGPGKGLEWLAVISYEGKTVYYADSVKDRFTISRDNSRNTVSLHLNNLRGEDTAVYYCAKGSASAAVLQHWGQGTLVSVTS
VL: MTQSPGSLAVSLGSRATINCKSSRSLLYRSNNKNYLAWYQQKPGQSPRLLIYWASSRESGVPDRFSGGGSGTSFTLTISSLQAEDVAVYYCQQYFNPPWTFGQGTKVEIK

Assays:
[1] = target: histones; test: AtheNA Multi-Lyte ANA, Ab at 50 ug/ml
[2] = target: histones; test: AtheNA Multi-Lyte ANA, Ab at 12.5 ug/ml
[3] = target: histones; test: AtheNA Multi-Lyte ANA, Ab at 6.25 ug/ml
[4] = target: histones; test: AtheNA Multi-Lyte ANA, Ab at 25 ug/ml
[5] = target: histones; test: AtheNA Multi-Lyte ANA, Ab at 3.538 ug/ml
[6] = target: histones; test: AtheNA Multi-Lyte ANA, Ab at 28.3 ug/ml
[7] = target: histones; test: AtheNA Multi-Lyte ANA, Ab at 7.075 ug/ml
[8] = target: histones; test: AtheNA Multi-Lyte ANA, Ab at 4.175 ug/ml
[9] = target: histones; test: AtheNA Multi-Lyte ANA, Ab at 8.35 ug/ml
[10] = target: histones; test: AtheNA Multi-Lyte ANA, Ab at 16.7 ug/ml
[11] = target: histones; test: AtheNA Multi-Lyte ANA, Ab at 2.088 ug/ml
[12] = target: sclerosis autoantigen (Scl-70) (UniProt P11387); test: AtheNA Multi-Lyte ANA, Ab at 50 ug/ml
[13] = target: sclerosis autoantigen (Scl-70) (UniProt P11387); test: AtheNA Multi-Lyte ANA, Ab at 12.5 ug/ml
[14] = target: sclerosis autoantigen (Scl-70) (UniProt P11387); test: AtheNA Multi-Lyte ANA, Ab at 6.25 ug/ml

sclerosis autoantigen (Scl-70), sequence (P11387 2-765 limits assumed): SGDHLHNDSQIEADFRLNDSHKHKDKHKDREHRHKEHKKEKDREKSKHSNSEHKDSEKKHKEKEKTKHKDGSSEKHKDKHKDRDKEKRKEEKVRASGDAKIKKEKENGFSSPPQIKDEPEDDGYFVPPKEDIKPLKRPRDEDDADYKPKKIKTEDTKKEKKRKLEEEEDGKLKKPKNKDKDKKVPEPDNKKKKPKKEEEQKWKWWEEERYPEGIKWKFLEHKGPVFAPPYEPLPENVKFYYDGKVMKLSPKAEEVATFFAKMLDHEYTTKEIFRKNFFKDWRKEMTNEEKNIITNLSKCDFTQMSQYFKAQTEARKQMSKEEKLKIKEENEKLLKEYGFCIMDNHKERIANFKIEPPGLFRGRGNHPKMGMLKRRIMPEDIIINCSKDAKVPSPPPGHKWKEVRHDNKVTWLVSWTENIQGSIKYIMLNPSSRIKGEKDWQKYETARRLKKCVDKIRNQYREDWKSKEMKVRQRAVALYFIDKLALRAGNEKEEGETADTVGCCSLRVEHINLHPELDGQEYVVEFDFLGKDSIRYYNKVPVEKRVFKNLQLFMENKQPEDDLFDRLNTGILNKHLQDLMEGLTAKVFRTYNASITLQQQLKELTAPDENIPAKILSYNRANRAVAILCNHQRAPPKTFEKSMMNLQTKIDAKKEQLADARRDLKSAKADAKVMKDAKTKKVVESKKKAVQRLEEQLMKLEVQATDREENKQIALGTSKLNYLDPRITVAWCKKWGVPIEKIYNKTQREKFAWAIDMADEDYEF

Binder	AtheNA signal [1]	AtheNA signal [2]	AtheNA signal [3]	also measured
B1	15	8	6	AtheNA signal [4]: 9
B2	31	26	18	–
B3	77	69	62	AtheNA signal [4]: 77
B4	4	1	3	–
B5	–	–	–	AtheNA signal [5]: 86; AtheNA signal [6]: 131; AtheNA signal [7]: 115
B6	–	–	–	AtheNA signal [8]: 114; AtheNA signal [9]: 114; AtheNA signal [10]: 100; AtheNA signal [11]: 93
B7	90	60	44	AtheNA signal [12]: 8; AtheNA signal [13]: 3; AtheNA signal [14]: 2
